Experimental data from patent US20230012273A1 (Boehringer Ingelheim, published 2023).
Values belong to the binder of their own block, whether it stands above or below them.

Assays:
[1] = target: T1, full-length human SIRPβ1 (NP_006056.2) on cells (human, UniProt O00241 30-398); assay: flow cytometry, U937 SIRPα-KO cells expressing full-length human SIRPβ1
T1 construct: also called β1 WT
Procedure: Antibody binding to cells expressing full-length human SIRPβ1 (NP_006056.2) and SIRPβL (NP_001129316.1) is evaluated by flow cytometry. SIRPβ1- or SIRPβL-expressing U937^{SIRPα KO} cells are blocked with donkey IgG and incubated on ice with increasing concentrations of antibodies for 60 minutes, washed and stained with AF647-conjugated donkey F(ab′)₂ anti-human IgG secondary reagent. Cells are washed, fixed, and analyzed by flow cytometry. Median fluorescent intensity is determined and used as a measure of antibody binding.

[2] = target: T2, full-length human SIRPγ (NP_061026.2) on cells (human, UniProt Q9P1W8 29-387); assay: flow cytometry, CHO cells
T2 construct: also called CHO-hSIRPγ; γ WT
T2 sequence (Q9P1W8 29-387): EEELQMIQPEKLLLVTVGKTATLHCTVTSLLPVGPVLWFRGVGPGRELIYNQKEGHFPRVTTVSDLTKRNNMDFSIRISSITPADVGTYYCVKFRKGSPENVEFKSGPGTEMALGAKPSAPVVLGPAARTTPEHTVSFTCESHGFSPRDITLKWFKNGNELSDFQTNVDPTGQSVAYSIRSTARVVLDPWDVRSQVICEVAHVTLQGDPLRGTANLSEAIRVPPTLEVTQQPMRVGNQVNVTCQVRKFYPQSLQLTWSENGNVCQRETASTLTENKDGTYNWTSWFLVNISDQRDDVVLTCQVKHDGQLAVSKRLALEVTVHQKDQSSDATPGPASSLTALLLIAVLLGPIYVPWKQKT

[3] = target: T3, full-length human SIRPβL (NP_001129316.1) on cells (human, UniProt Q5TFQ8 30-398); assay: flow cytometry, Expi-CHO cells expressing full-length wild-type human SIRPβL
T3 construct: one molecule for U937 SIRPα-KO transfectants (NP_001129316.1) and Expi-CHO transfectants (Q5TFQ8); also called SIRPβ1v3; βL WT
T3 sequence (Q5TFQ8 30-398): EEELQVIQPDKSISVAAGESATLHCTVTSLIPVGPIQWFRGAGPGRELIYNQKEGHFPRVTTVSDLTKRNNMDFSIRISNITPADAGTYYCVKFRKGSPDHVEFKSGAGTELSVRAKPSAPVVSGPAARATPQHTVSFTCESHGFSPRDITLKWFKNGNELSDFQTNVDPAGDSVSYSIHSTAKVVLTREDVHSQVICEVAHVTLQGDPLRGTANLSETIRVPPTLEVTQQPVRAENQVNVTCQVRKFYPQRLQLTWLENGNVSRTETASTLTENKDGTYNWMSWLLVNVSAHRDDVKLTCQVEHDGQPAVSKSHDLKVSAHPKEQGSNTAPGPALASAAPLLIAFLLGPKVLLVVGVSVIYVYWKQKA
Procedure: Expi-CHO parental cells are transduced with lentiviruses containing either full-length wild-type human SIRPβL (Q5TFQ8) or full-length human SIRPβL with a single amino acid point mutation (Table 62) and sorted to achieve matching expression levels. These cells are blocked with donkey IgG and incubated on ice with increasing concentrations of antibodies for 60 minutes, washed and stained with AF647-conjugated donkey F(ab′)₂ anti-human IgG antibodies. Stained cells are washed, fixed, and analyzed by flow cytometry. Median fluorescent intensity is determined and used as a measure of antibody binding.
A single amino acid substitution (H→D) introduced within the loop region maintained, strengthened, or facilitated antibody binding to these cells (FIG. 34B, Table 63).

[4] = target: T4, cynomolgus SIRPα extracellular domain + His-tag (NP_001271679) (cynomolgus monkey); assay: SPR, Ab captured, ECD-His analyte
T4 construct: also called CySIRPα NP_001271679; cynoSIRPα
T4 chain: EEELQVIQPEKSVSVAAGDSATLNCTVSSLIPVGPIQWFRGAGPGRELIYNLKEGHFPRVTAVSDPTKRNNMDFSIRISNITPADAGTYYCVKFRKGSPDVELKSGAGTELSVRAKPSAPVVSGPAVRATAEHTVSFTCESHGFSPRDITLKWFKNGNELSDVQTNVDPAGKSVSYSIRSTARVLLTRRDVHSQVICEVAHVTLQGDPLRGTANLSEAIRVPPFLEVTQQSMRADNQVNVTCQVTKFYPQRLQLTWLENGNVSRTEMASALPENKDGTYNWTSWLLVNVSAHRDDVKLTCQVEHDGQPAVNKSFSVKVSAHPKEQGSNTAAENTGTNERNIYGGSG
Outline: (§1)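 Steps: chip deactivated with 1M ethanolamine HCl for 420 sec at 10 μl/min; anti-SIRPα antibody captured; two-fold serial dilutions of His-tagged SIRP extracellular domain injected 300 sec at 30 μl/min; dissociation monitored 600 sec. All in 1×HBS-EP+ running buffer.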

[5] = target: T5, cynomolgus SIRPβ1v3 extracellular domain + His-tag (XP_005568593) (cynomolgus monkey); assay: SPR, Ab captured, ECD-His analyte
T5 construct: also called Cyno SIRPβ1v3; cynoSIRPβ1v3
T5 chain: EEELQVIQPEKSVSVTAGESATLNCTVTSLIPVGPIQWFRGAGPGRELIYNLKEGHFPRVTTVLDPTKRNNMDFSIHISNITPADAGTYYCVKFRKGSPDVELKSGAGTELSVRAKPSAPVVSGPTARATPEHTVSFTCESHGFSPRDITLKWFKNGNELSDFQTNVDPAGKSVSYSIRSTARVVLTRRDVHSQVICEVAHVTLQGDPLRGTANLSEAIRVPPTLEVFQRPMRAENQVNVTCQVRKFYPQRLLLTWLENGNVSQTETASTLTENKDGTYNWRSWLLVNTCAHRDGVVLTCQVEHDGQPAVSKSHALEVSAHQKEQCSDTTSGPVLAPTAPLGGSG
Outline: as §1

[6] = target: T6, cynomolgus SIRPα extracellular domain + His-tag (EGM_02252) (cynomolgus monkey); assay: SPR, Ab captured, ECD-His analyte
T6 construct: also called CySIRPα EGM_02252; cynoSIRPα
T6 chain: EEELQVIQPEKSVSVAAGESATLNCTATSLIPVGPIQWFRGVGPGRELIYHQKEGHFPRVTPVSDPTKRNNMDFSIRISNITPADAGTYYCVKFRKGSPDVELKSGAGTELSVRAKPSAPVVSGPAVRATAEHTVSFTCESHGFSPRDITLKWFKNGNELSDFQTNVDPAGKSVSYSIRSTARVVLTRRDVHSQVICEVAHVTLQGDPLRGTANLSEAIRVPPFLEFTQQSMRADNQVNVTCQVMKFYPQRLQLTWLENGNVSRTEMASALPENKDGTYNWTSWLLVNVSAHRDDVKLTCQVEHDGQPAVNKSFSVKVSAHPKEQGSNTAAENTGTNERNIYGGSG
Outline: as §1

[7] = target: T7, mouse SIRPα extracellular domain + His-tag (NP_031573) (mouse, UniProt P97797 32-373); assay: SPR, Ab captured, ECD-His analyte
T7 chain: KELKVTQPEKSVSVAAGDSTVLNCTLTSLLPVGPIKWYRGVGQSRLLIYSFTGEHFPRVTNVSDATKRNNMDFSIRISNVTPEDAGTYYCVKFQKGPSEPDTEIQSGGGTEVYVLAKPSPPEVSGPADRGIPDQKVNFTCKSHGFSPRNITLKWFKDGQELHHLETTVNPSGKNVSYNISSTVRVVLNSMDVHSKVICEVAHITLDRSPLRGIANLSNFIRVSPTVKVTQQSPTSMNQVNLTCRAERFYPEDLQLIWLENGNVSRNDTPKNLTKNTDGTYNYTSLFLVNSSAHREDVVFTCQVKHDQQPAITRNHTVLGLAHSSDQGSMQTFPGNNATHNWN
Outline: as §1

T1 sequence (O00241 30-398): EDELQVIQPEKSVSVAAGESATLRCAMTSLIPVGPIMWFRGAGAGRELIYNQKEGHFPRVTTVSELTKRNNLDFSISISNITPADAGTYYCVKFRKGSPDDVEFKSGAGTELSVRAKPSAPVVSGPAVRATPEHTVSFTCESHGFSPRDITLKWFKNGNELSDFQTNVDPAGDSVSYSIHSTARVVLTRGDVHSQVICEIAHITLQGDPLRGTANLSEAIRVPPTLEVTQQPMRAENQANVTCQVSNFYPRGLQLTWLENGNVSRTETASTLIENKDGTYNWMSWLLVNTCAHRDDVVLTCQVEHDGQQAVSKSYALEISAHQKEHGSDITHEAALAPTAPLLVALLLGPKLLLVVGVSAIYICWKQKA

B2: Anti-SIRPα antibody KWAR23 (antibody, V domains shown)
VH: EVQLQQSGAELVKPGASVKLSCTASGFNIKDYYIHWVQQRTEQGLEWIGRIDPEDGETKYAPKFQDKATITADTSSNTAYLHLSSLTSEDTAVYYCARWGAYWGQGTLVTVSS
VL: QIVLTQSPAIMSASPGEKVTLTCSASSSVSSSYLYWYQQKPGSSPKLWIYSTSNLASGVPARFSGSGSGTSYSLTISSMEAEDAASYFCHQWSSYPRTFGAGTKLELK
EC50 [2]: 2.7 nM

B3: Antibody A10 (antibody, human IgG1, kappa, L234A L235A)
heavy: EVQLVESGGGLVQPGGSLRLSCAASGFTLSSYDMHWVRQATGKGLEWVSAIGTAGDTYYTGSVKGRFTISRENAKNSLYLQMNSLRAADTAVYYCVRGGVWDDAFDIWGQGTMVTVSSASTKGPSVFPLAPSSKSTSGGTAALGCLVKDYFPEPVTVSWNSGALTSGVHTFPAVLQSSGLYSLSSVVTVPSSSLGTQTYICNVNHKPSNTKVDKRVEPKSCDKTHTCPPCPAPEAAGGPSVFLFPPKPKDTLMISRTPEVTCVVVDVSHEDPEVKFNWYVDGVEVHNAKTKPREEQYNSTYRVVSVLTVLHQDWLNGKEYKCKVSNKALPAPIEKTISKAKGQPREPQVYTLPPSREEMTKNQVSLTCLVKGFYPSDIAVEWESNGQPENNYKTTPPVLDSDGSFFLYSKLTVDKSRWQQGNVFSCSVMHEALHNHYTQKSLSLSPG
light: DIQMTQSPSSLSASVGDRVTITCRASQDINNYLAWFQQKPGKAPKSLIYTASSLHSGVPSKFSGSGSGTDFTLTISSLQPEDFATYYCQQYVSYPYTFGQGTKLEIKRTVAAPSVFIFPPSDEQLKSGTASVVCLLNNFYPREAKVQWKVDNALQSGNSQESVTEQDSKDSTYSLSSTLTLSKADYEKHKVYACEVTHQGLSSPVTKSFNRGEC
binding result [3]: no binding (tested: about 67 nM)

Other lines, results leading:

binding result [1]: no binding (tested: about 200 nM)
B1: Antibody E22 (antibody, human IgG1, kappa, L234A L235A, V domains shown)
VH: QVQLQESGPGLVKPSETLSLTCTVSGGSIRDYYWSWIRQPPGKGLEWIGFIYYNGRTFYQSSLKSRVTISLDTSKNQFSLKMTSVTAADTAVYYCARVRAYSGIGLDGTDVWGQGTTVTVSS
VL: DIVMTQSPLSLPVTPGEPASISCRSSQSLLYSTGYTYLDWYLQRPGQSPQLLIYGGSSRASGVPDRFSGSGSGTDFTLKISRVEAEDVGVFYCGQALQTPLTFGQGTKVEIKR

Kd [4]: 453 nM | Kd [5]: 201 nM | Kd [6]: 201 nM | binding result [7]: no binding
B4: Antibody A (antibody, human IgG1, kappa, L234A L235A)
heavy: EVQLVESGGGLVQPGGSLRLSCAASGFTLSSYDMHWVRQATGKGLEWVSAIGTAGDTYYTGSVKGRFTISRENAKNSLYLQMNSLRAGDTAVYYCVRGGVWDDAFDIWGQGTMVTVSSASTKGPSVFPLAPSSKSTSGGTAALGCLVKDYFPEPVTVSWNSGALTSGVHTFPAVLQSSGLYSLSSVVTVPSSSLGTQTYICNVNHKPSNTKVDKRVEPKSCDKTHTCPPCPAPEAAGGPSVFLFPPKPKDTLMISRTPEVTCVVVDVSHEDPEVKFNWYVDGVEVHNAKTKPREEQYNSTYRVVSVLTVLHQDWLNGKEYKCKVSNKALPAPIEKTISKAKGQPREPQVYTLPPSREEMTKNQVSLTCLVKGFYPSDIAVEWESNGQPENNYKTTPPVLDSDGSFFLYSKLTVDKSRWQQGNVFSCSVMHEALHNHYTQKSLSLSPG
light: DIQMTQSPSSLSASVGDRVTITCRASQDINNYLAWFQQKPGKAPKSLIYTASSLHSGVPSKFSGSGSGTDFTLTISSLQPEDFATYYCQQYVSYPYTFGQGTKLEIKRTVAAPSVFIFPPSDEQLKSGTASVVCLLNNFYPREAKVQWKVDNALQSGNSQESVTEQDSKDSTYSLSSTLTLSKADYEKHKVYACEVTHQGLSSPVTKSFNRGEC
